Laboratory results published in a protein production outcome set (Wang et al. 2014).

Experiment: label from the status in PepcDB records
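Also: failed if final PepcDB status was selected cloned or expressed and not failed if soluble or beyond.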

Row | Sequence | protein production
1 | MVEIFLRTLPFFVIIGLGFWAGRTRFFTPEATAYLTKFVFFFALSAMLFRFAATLPFAEIFNGQLVMGYLWGTAGVYGIASLVAFLRKLDVPTAAVEAQCAAIGNVGFLGLPMLAMLFGEAAIGPVMLVLSVDLIVFSSLIVILINGGRDGRLSLGTLRLIGMGLLKNPMIVSISAGLIWSSLRLPIPAPLNDFLTILGGAATPGALFAIGASLAGRSAERVQIAAWLSLCKLVIHPILVALAVLWVFPVDAFSASVAIAAAALPVAGNVYMLAAHYGVAPQRASAAILLSTAVSILTVPAFIAWVTSA | failed
2 | MVEQLVSNAAILLAGFYIISLVYKEPITKELSTNKKIVIGIWAGLLGFALMVFGIPISNNVIVDLRHIPIIMVGFYGGPIPAIVSAIIISASRFLLSVNSAAIMAAVVMMLIGIITAIFGKRIEKFKIWGVFILNIIACSFVVINLHLILARESHFWINMTVFVLIALVIGAVSAGLMSNMIKSKQLFQKYEQDSTLDYLTKLSNVRQFDEKINHVMDAGSRQVTLMLIDIDYFKNINDTYGHDAGDAILKQLAIILKRNTSDGSEAFRNGGEEFSIVLLDCPIEKGNFFAEQVRRETEEYDFMIPSGQVVKITISVGVSSSKDGANTSEGLFKSADEALYKAKLTGRNQVCIADGN | failed
3 | MVERLLEIIERSLRKCPWLEKQSIETLLEALASEIEEVAEAVKKNDLANLEEEIGDLIYDALLVAAVAQRDYGIDLESAIQKVVEKISHRKPWLFWEEKISLEEAEKIWKERKKKI | not failed
4 | MVEVYRLTKRHLDGAKSESALLNQIKIFSTCVGHGVGTIDFSEKVLEIPPAEFEAILQNGGEYLRFKLGNLSRYFEVEVFPEHAAKLLPEMMECPFKKVLEELREGYLVLRKDFKHA | failed
5 | MVEYDLSVIILNYNAKRFLEECINSIYENTKEIKFEVILVDNKSTDNSAEFIKEKFTGKEDFTFIESKVNCGFAAGNNKAIEVSKGRAVLLLNPDTVVNGNVIGETYKCLMKDDKVGVAGCKVLNPDGTLQLACRRMIPTPKDAFYKIFGLSKIFKNNKKFTRYNLTYASADEFIDVDSVSGSYLMIKKEVIDKIGYLDETFFMYGEEMDWCLRARKAGYIVRYCPVGTIIHYKGESSKQLSHKATYEFYRAMWIFYKKNNKGNIFLDSIVWLGVKFLLFIALIKLAILPKNRVGSKG | failed
6 | MVFCRGCAKEISDDAGTCPHCGAPQLIISSASANKEAPASGNWYFEVLKKYAVFTGRARRKEYWMFFLFNVLISIVIGVIGGLVGDGGILANLYSLAVLVPGIAVGVRRLHDTDRSGWWLLVPIANLVFLVQEGHAGPNRFGPSPK | failed
7 | MVFKRRDRRSPLQVLWELIWPRGGWTRAFHYVKHRVRRLPDRPERIARGIGAGVFASFTPFYGIHFVIAAILARLINGNILAGLSGTFFGNPLTYVPIGVVSLQTGHFLLGTEFHEGAKQGLMRKFARAAGDLKDNFLALFTDRDADWQALGLFFDEVFFPYMIGGIAPGIVAGVVCYYLSLPVISTYQKRRRAKIKAKFEAIKKKAQADLPNPGNPG | failed
8 | MVFLKRFRAYGFKSYADEITINFTHSMTGIVGPNGSGKSNVVDALKWVLGERSMKHLRSKSGDDMIFFGSKDKPASKLAEVELTFDNSQKLLHDPRPEISVMRRIYRGSGQSEYYINGELVTLKEISGIFADIGLEKGSLGIISQGSVSFVEAKPEERRKIFEDASGIGRYTKRKEEVTNQLARTVQNLKQVSIVLNELKKDLKKLTIQADKAQRFVKLKEELKELELSVLVADYLKSQGELDRFNHQIGYIEQDFKLHEPQLQLLEDQLNIFNQRFRDADEQSIKLQQELQAVYQTINELEQRKAVIDVQLKNELSKKDEKHKIQALKKLIRVDQAQLESLQAQVLKTTSEITLLTNELSTVQTELDTTKLNLNQNSAALVYQQAQQEFLKAQNEEWVKTNPAHVLVKNVKALTGLLNTLNTFLKFEKQYEKALLKALGKSIGYLVVNNNLAALKAIDFLLTNQIGQVTFLPIDDIAFDTKIAPEHMEILQQLDGFLGVGSDHVSCDESLQPIVNALLGQVIIASDLQAALKLSSYTYKLYRVVTLNGETVYAGGIIQGGYVKDNLSLYNLQEKLASSEANITQLEHNEKQLRTNLTSLETKLNELNKKLKYEEILLEKFNERVNHTNKAILSYKIEYEQLTNESFDGTPHSFDETRLVESLNRAWAERDELNSQLKLNQELKETLAKSIKLAEAKTADLRALLDEQRSQLVLAREGKIRFENTIHNITDKINGGYKLTMEFAIANYNKPIKLSTMQAQNKIARMQSQLDEMGPINLESIAEIADKQKRFDDINGEYESLQTAIKDLQTAIGEIDELACKEFDELIQKVNAELPKTFNYLFGGGSCQIRYTDTDNVLLSGIEVFANPPGKNVANLMLLSGGEKTLVALSVLFSILRVSAFPLVILDEAESALDPANVERFANIIGNSSNNTQFLIITHRQGTMMKCDMLLGAAMQTKGVTKTFAVSLEKAEQYISKDKQN | failed
9 | MVFPSEQEQIEKFEKDHVAQHYFEVLRTLISKKSVFAQQVGLKEVANYLGEIFKRVGAEVEIDESYTAPFVMAHFKSSRPDAKTLIFYNHYDTVPADGDQVWTEDPFTLSVRNGFMYGRGVDDDKGHITARLSALRKYMQHHDDLPVNISFIMEGAEESASTDLDKYLEKHADKLRGADLLVWEQGTKNALEQLEISGGNKGIVTFDAKVKSADVDIHSSYGGVVESAPWYLLQALQSLRAADGRILVEGLYEEVQEPNEREMALLETYGQRNPEEVSRIYGLELPLLQEERMAFLKRFFFDPALNIEGIQSGYQGQGVKTILPAEASAKLEVRLVPGLEPHDVLEKIRKQLDKNGFDKVELYYTLGEMSYRSDMSAPAILNVIELAKKFYPQGVSVLPTTAGTGPMHTVFDALEVPMVAFGLGNANSRDHGGDENVRIADYYTHIELVEELIRSYE | not failed
10 | MVGLGTVINVILIIVGGFVGLFLKNFLKESLQKSLMQAMGVAVLFISISGVLEKMMLVEKSHLISNHTNMMIITLALGTVLGELLSLDSYIDKFGNYLKQKTGSGNDIKFVEAFVTSTCTVCIGAMAVVGSIQDGIAADHSILFAKGMLDMIIIAIMTVSLGKGALFSALPVALLQGSLTIVAFFMGSLLNPSSLDYLNLVGNMLIFCVGVNLLFNLNIKVINMLPAIILAILWGSFI | failed
11 | MVIDFSAFYELPRLIDRLAAEGESSFAASRGQAVFPPLNIGEDESAVYVRALIPGGDLSALDLTLTDKTLVLRGELPPVRGRYYRQERRTGPFQRVVLLNVPIDRDRVHAAMRDGVLEVVLPKAQQERLRTIHITTR | failed
12 | MVIETGVWIVLLGATVTAVATGLGALPFLFVRDIGDWWLGVFNAAAGGLMLAASHSLITEGSMLSTGRTLIGILVGLALILGANTFISRGDDHDVAELAGADARKALLILGIMTAHSFAEGVGVGVSYGGGDELGAFITAAIAVHNIPEGLAISLVLVPRGTPLWKAAGWSIFTSLPQPLMAVPAFLFVLVFEPFLPIGFGLAAGAMIWMVFAELIPDALEDVPGPTAGAAVTLAFAALFAFQHFVLHV | failed
13 | MVIGSGVFLTRTCYLRLQPPSLVLRRRFCAATTACSVPLNGNKKKKSEKEKVIVISGPTGAGKSRLAMELAKRLNGEIISADSVQVYKGLDVGSAKPSDSDRKVVPHHLIDILHPSQDYSVGQFYDDGRQATKDILNRGRVPIVTGGTGLYLRWFMYGKPDVPKPSPEVIAEAHDMLVGFQTEYNWDAAVELVVNAGDPKASSLPRNDWYRLRRSLEILKSTGSPPSSFRIPYDSFRVNLVAPDADDFLEDGSSADISIQNIETDLDYDFLCFFLSSPRVALYRSIDFRCEDMLSGPNGVLSEARWLLDLGLLPNSNPATRAIGYRQAMEYLLQCRRYEGESSPREFYAFLNKFQTASRNFAKRQMTWFRCEPMYHWLNASKPLDSILQCIYDAYESEAEMVEIPESLRMSKDVRDSREASELKGYRSKNRHFVRREDCSSVLEWIRSEGCKSEASCVESAIA | failed
14 | MVIGVPKEIKTLENRVALTPGGVESLVRRGHTVLVERGAGEGSGLSDAEYARAGAELVGREEAWGAEMVVKVKEPLPEEYGFLREGLILFTYLHLAADRGLTEAMLRSGVTGIAYETVQLPDGTLPLLVPMSEVAGRMAPQVGAQFLEKPKGGRGVLLGGVPGVAPASVVILGGGTVGTNAAKIALGMGAQVTILDVNHKRLQYLDDVFGGRVITLTATEANIKKSVQHADLLIGAVLVPGAKAPKLVTRDMLSLMKEGAVIVDVAVDQGGCVETIRPTTHAEPTYVVDGVVHYGVANMPGAVPRTSTFALTNQTLPYVLKLAEKGLDALLEDAALLKGLNTHKGRLTHPGVAEAFGLPYTPPEEALRG | not failed
